Our source for the Kd values is publication PMC10786891, “Massively parallel profiling of RNA-targeting CRISPR-Cas13d”.

To fix the notation:
T1: EsCas13d, nuclease-dead (Eubacterium siraeum, UniProt B0MS50, R295A;H300A;R849A;H854A)
T1 sequence: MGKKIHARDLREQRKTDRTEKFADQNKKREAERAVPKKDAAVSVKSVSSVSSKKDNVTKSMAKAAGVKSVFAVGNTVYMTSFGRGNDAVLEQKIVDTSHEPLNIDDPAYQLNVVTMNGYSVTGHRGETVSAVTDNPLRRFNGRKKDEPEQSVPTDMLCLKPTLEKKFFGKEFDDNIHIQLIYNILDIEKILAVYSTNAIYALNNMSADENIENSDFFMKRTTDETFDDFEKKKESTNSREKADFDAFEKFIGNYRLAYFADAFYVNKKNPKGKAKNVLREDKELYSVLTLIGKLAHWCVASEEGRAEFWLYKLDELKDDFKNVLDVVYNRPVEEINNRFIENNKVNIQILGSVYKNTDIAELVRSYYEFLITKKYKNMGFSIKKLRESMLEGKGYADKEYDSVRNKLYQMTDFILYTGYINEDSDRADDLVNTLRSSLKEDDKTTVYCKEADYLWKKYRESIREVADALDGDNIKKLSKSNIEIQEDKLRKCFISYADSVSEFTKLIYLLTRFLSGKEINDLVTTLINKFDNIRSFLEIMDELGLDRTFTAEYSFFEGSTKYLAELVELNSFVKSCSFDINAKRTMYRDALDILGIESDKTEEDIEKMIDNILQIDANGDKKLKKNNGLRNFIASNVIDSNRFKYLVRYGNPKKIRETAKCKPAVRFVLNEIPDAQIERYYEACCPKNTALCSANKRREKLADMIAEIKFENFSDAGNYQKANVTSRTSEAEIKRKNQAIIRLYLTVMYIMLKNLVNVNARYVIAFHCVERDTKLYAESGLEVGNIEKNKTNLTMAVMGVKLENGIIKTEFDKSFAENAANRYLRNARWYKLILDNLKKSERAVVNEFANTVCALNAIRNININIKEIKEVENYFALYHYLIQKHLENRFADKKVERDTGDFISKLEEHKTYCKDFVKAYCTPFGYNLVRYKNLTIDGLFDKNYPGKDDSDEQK

B1: target 2 MT 5'PFS GAU 3'PFS AGA (mixed)
RNA 1: CACCCGUGCAAAAUUGCAGGGGUCUAAAACCUUCUCCAAAUUGUUUCAUCCU
RNA 2: GGGAAUGGAUCCACAUCUACGAAUUCGAUAGGAUGAAACAAUUUGGAGAAGAGAAGAUCGGAAGAGCACACGU
B2: target 2 MT 5'PFS UAU 3'PFS CUU (mixed)
RNA 1: CACCCGUGCAAAAUUGCAGGGGUCUAAAACCUUCUCCAAAUUGUUUCAUCCU
RNA 2: GGGAAUGGAUCCACAUCUACGAAUUCUAUAGGAUGAAACAAUUUGGAGAAGCUUAGAUCGGAAGAGCACACGU
B3: target 2 MT 5'PFS AAA 3'PFS AAG (mixed)
RNA 1: CACCCGUGCAAAAUUGCAGGGGUCUAAAACCUUCUCCAAAUUGUUUCAUCCU
RNA 2: GGGAAUGGAUCCACAUCUACGAAUUCAAAAGGAUGAAACAAUUUGGAGAAGAAGAGAUCGGAAGAGCACACGU
B4: target 2 MT 5'PFS UCA 3'PFS AUG (mixed)
RNA 1: CACCCGUGCAAAAUUGCAGGGGUCUAAAACCUUCUCCAAAUUGUUUCAUCCU
RNA 2: GGGAAUGGAUCCACAUCUACGAAUUCUCAAGGAUGAAACAAUUUGGAGAAGAUGAGAUCGGAAGAGCACACGU
B5: target 2 MT 5'PFS GCG 3'PFS CAC (mixed)
RNA 1: CACCCGUGCAAAAUUGCAGGGGUCUAAAACCUUCUCCAAAUUGUUUCAUCCU
RNA 2: GGGAAUGGAUCCACAUCUACGAAUUCGCGAGGAUGAAACAAUUUGGAGAAGCACAGAUCGGAAGAGCACACGU
B6: target 2 MT 5'PFS GAU 3'PFS AGC (mixed)
RNA 1: CACCCGUGCAAAAUUGCAGGGGUCUAAAACCUUCUCCAAAUUGUUUCAUCCU
RNA 2: GGGAAUGGAUCCACAUCUACGAAUUCGAUAGGAUGAAACAAUUUGGAGAAGAGCAGAUCGGAAGAGCACACGU
B7: target 2 MT 5'PFS GUU 3'PFS CAG (mixed)
RNA 1: CACCCGUGCAAAAUUGCAGGGGUCUAAAACCUUCUCCAAAUUGUUUCAUCCU
RNA 2: GGGAAUGGAUCCACAUCUACGAAUUCGUUAGGAUGAAACAAUUUGGAGAAGCAGAGAUCGGAAGAGCACACGU
B8: target 2 MT 5'PFS GUU 3'PFS CAC (mixed)
RNA 1: CACCCGUGCAAAAUUGCAGGGGUCUAAAACCUUCUCCAAAUUGUUUCAUCCU
RNA 2: GGGAAUGGAUCCACAUCUACGAAUUCGUUAGGAUGAAACAAUUUGGAGAAGCACAGAUCGGAAGAGCACACGU
B9: target 2 MT 5'PFS UGU 3'PFS CCG (mixed)
RNA 1: CACCCGUGCAAAAUUGCAGGGGUCUAAAACCUUCUCCAAAUUGUUUCAUCCU
RNA 2: GGGAAUGGAUCCACAUCUACGAAUUCUGUAGGAUGAAACAAUUUGGAGAAGCCGAGAUCGGAAGAGCACACGU
B10: target 2 MT 5'PFS UAU 3'PFS CUC (mixed)
RNA 1: CACCCGUGCAAAAUUGCAGGGGUCUAAAACCUUCUCCAAAUUGUUUCAUCCU
RNA 2: GGGAAUGGAUCCACAUCUACGAAUUCUAUAGGAUGAAACAAUUUGGAGAAGCUCAGAUCGGAAGAGCACACGU
B11: target 2 MT 5'PFS GAG 3'PFS UAU (mixed)
RNA 1: CACCCGUGCAAAAUUGCAGGGGUCUAAAACCUUCUCCAAAUUGUUUCAUCCU
RNA 2: GGGAAUGGAUCCACAUCUACGAAUUCGAGAGGAUGAAACAAUUUGGAGAAGUAUAGAUCGGAAGAGCACACGU
B12: target 2 MT 5'PFS GAA 3'PFS CCA (mixed)
RNA 1: CACCCGUGCAAAAUUGCAGGGGUCUAAAACCUUCUCCAAAUUGUUUCAUCCU
RNA 2: GGGAAUGGAUCCACAUCUACGAAUUCGAAAGGAUGAAACAAUUUGGAGAAGCCAAGAUCGGAAGAGCACACGU
B13: target 2 MT 5'PFS GGC 3'PFS UUU (mixed)
RNA 1: CACCCGUGCAAAAUUGCAGGGGUCUAAAACCUUCUCCAAAUUGUUUCAUCCU
RNA 2: GGGAAUGGAUCCACAUCUACGAAUUCGGCAGGAUGAAACAAUUUGGAGAAGUUUAGAUCGGAAGAGCACACGU
B14: target 2 MT 5'PFS GUU 3'PFS CAU (mixed)
RNA 1: CACCCGUGCAAAAUUGCAGGGGUCUAAAACCUUCUCCAAAUUGUUUCAUCCU
RNA 2: GGGAAUGGAUCCACAUCUACGAAUUCGUUAGGAUGAAACAAUUUGGAGAAGCAUAGAUCGGAAGAGCACACGU
B15: target 2 MT 5'PFS UAU 3'PFS CUA (mixed)
RNA 1: CACCCGUGCAAAAUUGCAGGGGUCUAAAACCUUCUCCAAAUUGUUUCAUCCU
RNA 2: GGGAAUGGAUCCACAUCUACGAAUUCUAUAGGAUGAAACAAUUUGGAGAAGCUAAGAUCGGAAGAGCACACGU
B16: target 2 MT 5'PFS UCA 3'PFS AUC (mixed)
RNA 1: CACCCGUGCAAAAUUGCAGGGGUCUAAAACCUUCUCCAAAUUGUUUCAUCCU
RNA 2: GGGAAUGGAUCCACAUCUACGAAUUCUCAAGGAUGAAACAAUUUGGAGAAGAUCAGAUCGGAAGAGCACACGU
B17: target 2 MT 5'PFS UCG 3'PFS CAU (mixed)
RNA 1: CACCCGUGCAAAAUUGCAGGGGUCUAAAACCUUCUCCAAAUUGUUUCAUCCU
RNA 2: GGGAAUGGAUCCACAUCUACGAAUUCUCGAGGAUGAAACAAUUUGGAGAAGCAUAGAUCGGAAGAGCACACGU
B18: target 2 MT 5'PFS GCG 3'PFS CAU (mixed)
RNA 1: CACCCGUGCAAAAUUGCAGGGGUCUAAAACCUUCUCCAAAUUGUUUCAUCCU
RNA 2: GGGAAUGGAUCCACAUCUACGAAUUCGCGAGGAUGAAACAAUUUGGAGAAGCAUAGAUCGGAAGAGCACACGU
B19: target 2 MT 5'PFS UCA 3'PFS AUA (mixed)
RNA 1: CACCCGUGCAAAAUUGCAGGGGUCUAAAACCUUCUCCAAAUUGUUUCAUCCU
RNA 2: GGGAAUGGAUCCACAUCUACGAAUUCUCAAGGAUGAAACAAUUUGGAGAAGAUAAGAUCGGAAGAGCACACGU
B20: target 2 MT 5'PFS UAU 3'PFS CUG (mixed)
RNA 1: CACCCGUGCAAAAUUGCAGGGGUCUAAAACCUUCUCCAAAUUGUUUCAUCCU
RNA 2: GGGAAUGGAUCCACAUCUACGAAUUCUAUAGGAUGAAACAAUUUGGAGAAGCUGAGAUCGGAAGAGCACACGU
B21: target 2 MT 5'PFS GUA 3'PFS CGC (mixed)
RNA 1: CACCCGUGCAAAAUUGCAGGGGUCUAAAACCUUCUCCAAAUUGUUUCAUCCU
RNA 2: GGGAAUGGAUCCACAUCUACGAAUUCGUAAGGAUGAAACAAUUUGGAGAAGCGCAGAUCGGAAGAGCACACGU
B22: target 2 MT 5'PFS UCA 3'PFS AUU (mixed)
RNA 1: CACCCGUGCAAAAUUGCAGGGGUCUAAAACCUUCUCCAAAUUGUUUCAUCCU
RNA 2: GGGAAUGGAUCCACAUCUACGAAUUCUCAAGGAUGAAACAAUUUGGAGAAGAUUAGAUCGGAAGAGCACACGU
B23: target 2 MT 5'PFS GUU 3'PFS CAA (mixed)
RNA 1: CACCCGUGCAAAAUUGCAGGGGUCUAAAACCUUCUCCAAAUUGUUUCAUCCU
RNA 2: GGGAAUGGAUCCACAUCUACGAAUUCGUUAGGAUGAAACAAUUUGGAGAAGCAAAGAUCGGAAGAGCACACGU
B24: target 2 MT 5'PFS GAA 3'PFS CCG (mixed)
RNA 1: CACCCGUGCAAAAUUGCAGGGGUCUAAAACCUUCUCCAAAUUGUUUCAUCCU
RNA 2: GGGAAUGGAUCCACAUCUACGAAUUCGAAAGGAUGAAACAAUUUGGAGAAGCCGAGAUCGGAAGAGCACACGU
B25: target 2 MT 5'PFS GUA 3'PFS CGA (mixed)
RNA 1: CACCCGUGCAAAAUUGCAGGGGUCUAAAACCUUCUCCAAAUUGUUUCAUCCU
RNA 2: GGGAAUGGAUCCACAUCUACGAAUUCGUAAGGAUGAAACAAUUUGGAGAAGCGAAGAUCGGAAGAGCACACGU
B26: target 1 insG 3' of 1,insC 3' of 1 (mixed)
RNA 1: CACCCGUGCAAAAAUGCAGGGGUCUAAAACUGAGCGGAUAACCUCUCUAUGG
RNA 2: GGGAAUGGAUCCACAUCUACGAAUUCGUACCAUAGAGAGGUUAUCCGCUCAGCCCGAGAUCGGAAGAGCACACGU
B27: target 1 insG 3' of 22,insU 3' of 12 (mixed)
RNA 1: CACCCGUGCAAAAAUGCAGGGGUCUAAAACUGAGCGGAUAACCUCUCUAUGG
RNA 2: GGGAAUGGAUCCACAUCUACGAAUUCGUACGCAUAGAGAGGUUUAUCCGCUCACCGAGAUCGGAAGAGCACACGU

The target of the data set is T1, EsCas13d, nuclease-dead. Description: crRNA (strand 1, pre-loaded); Mg2+; 40 mM Tris-HCl pH 7.5, 150 mM NaCl, 6 mM MgCl2, 1 mM DTT, 0.1% Tween-20, 0.2 mg/ml BSA; 25 C; 10 min per concentration, then washed. The conditions noted are these: tags: His6-TwinStrep-SUMO cleaved; N-terminal SNAP kept (SNAP-Surface 488); label: 3' end held by stalled T7 RNA polymerase.
As for B1, binding was put at a Kd of 8 ± 1.1 nM.

Consider B2, for which the affinity, expressed as Kd, was 54 ± 14 nM.

B3: the Kd stood at 4 ± 0.5 nM.

In the case of B4, the Kd was found to be 4 ± 1 nM.

For B5, the dissociation constant Kd was determined as 10.4 ± 1.3 nM.

As to B6, the Kd came to 7.1 ± 0.6 nM.

Regarding B7, binding was put at a Kd of 10.9 ± 0.9 nM.

As for B8, the Kd is 15.3 ± 2.3 nM.

The molecule B9 had a Kd of 12.6 ± 1.4 nM.

In the case of B10, binding was characterised by a dissociation constant (Kd) of 38 ± 7 nM.

As for B11, the Kd was 5.6 ± 0.5 nM.

The molecule B12 gave a Kd of 25 ± 6 nM.

For B13, the equilibrium dissociation constant (Kd) came out at 27 ± 5 nM.

Regarding B14, the Kd is 14.2 ± 1.9 nM.

The molecule B15 displayed a Kd of 22.7 ± 2.8 nM. This Kd is about 1.6-fold higher than that of the molecule before.

B16 displayed a Kd of 3.6 ± 0.6 nM.

In the case of B17, the Kd was ~30 nM.

As for B18, the affinity, expressed as Kd, was 13 ± 4 nM.

In the case of B19, the Kd was 6.2 ± 2 nM.

In the case of B20, binding was characterised by a dissociation constant (Kd) of 17.4 ± 1.9 nM.

B21: binding was characterised by a dissociation constant (Kd) of 7.4 ± 0.5 nM.

With B22, the Kd turned out to be 4.4 ± 0.5 nM.

With B23, the Kd was determined as 6.6 ± 0.7 nM.

B24: the Kd is 10.5 ± 1.2 nM. This Kd is about 1.6-fold higher than that of the molecule before.

Regarding B25, the Kd was determined as 6.4 ± 0.5 nM.

B26 came in with a dissociation constant (Kd) of 11 ± 1.4 nM.

Turning to B27, the Kd was 20.5 ± 1.8 nM.
